Reference: patent publication US20230226096A1 (Orna Therapeutics, Inc., priority 2020, published 2023)

system: HEK293 cells; type: cell-based, human; conditions: luminescence from secreted Gluc in supernatant 24 hours after transfection of HEK293 cells; circular RNA encoding Gluc with the named IRES (UTR truncated to 675 nt)

Row | Molecule | Expression
1 | Bovine hepacivirus (nucleic acid, listed as Hepacivirus sp.) DNA: CCATCGACACTCCAGGCTCACGGATTAAGTTAGGTTCCGCCGAAGCGGGCTAACCAGGCCCCTAGTAGGAGGCGCCTATCCCGTGAGCCCTTTCCCCACGGATTGAGTGGAGCTGGAGCTGGGAAGGACCGAGTACGGTCCAATCGAGAAGAACCCTGATGAACATTCCAGGCCTCTTCGGTAGATTTGGATATATCCACCAGTGAAGGCGGGGTCGTGGGTACAGGCCCCCTAGTCCACACAGCCTGATAGGGTCCTGCCGCAGGATCCGTGGGTGCGGCTGTACATGTACC | 1.89E+05
2 | Breda virus (nucleic acid) DNA: ATCACCTAGTACTTACAAGCGGGTCAAACCGCCCTCCGGAACGGTCATAACCCCCTCCCGAACGTGCGCTTGACGTGACTGGTCTTTCAGTCTAGCTTTCTGAGAAATACTCCGGGGTTGTAACCCACCATTTTGACCTTTGGTCAGTTTGGTAACACTCCAACCAAACAGCATCTGACCCACCTCCAGCTTGCTGCAGGCCATTTGGACCAAACGGGTTCAGATATCTTGTGGCTAAACCTCTGACCCACCTCCAGTTTACTGCAGGCCTTTTGGACTAAACGGGTACAGACTCTTTGTGGTTAGTTTTTAACTACCCACTGTTTAGCCGCCAACCTGATTTTTATTGTTACAAAATTTTGTGTTTACACATTATTTTCTTACGGTTGGCAGTTTGTTTGGTTGTTTGCACAGTTTTTGCTGATACCAATTTTTACTGTGCTTTTGGTGTTTTCGGCTAAGGCTGTTTTTCACATACTTAGTTTGCTTGAAGTAACCTTCACAACATCTGTTTTGTTTTTGGTTTCTAAGGTAAAGAGTTTCAGGAAAAAACATAGGCGCCCATCTTGTGGTGTCTAGTTTTAATTAATCTGGCAAACAAGTATCAAGTCATCGACTCCCTTTGGAGTGAGACTTACGAGTACCAATTCGCCTATTTTGGCCATCCATATAAAA | 1.16E+05
3 | Rafivirus WHWGGF74766 (nucleic acid, listed as Rafivirus sp.) DNA: TGCGAATTTATTCGCACAGTCTCTTTTCCCCCATCTTGTGTGTGTGATGGGGTAAGCCGCAGAGTAATACCTACTCTGCTGCAAACACACTCACTCTTTTCTATCTACTTTATATCATGTAATAATAAGTAGGGAACATATTCAATTCATATTGTTCATCTCACTGAACCCGCATGAAGGACTGCATTGCATATCCTGGACGAAGTGACGTGGAATATTTGGACATTTATGGATTGGACACCATTACGCTTTGTGCCTCTACGGAGATGTAACCATAATCTTAAGTAGTAGTACCCCAGCACAAGAGGATAAAGTGGCATACACGACAACGGGTGTTGCTCGCACCTTAGTAATGTGGATGTTCACCCTTGGAGCGTGCTGAAACTCTGTGGGTAAAGACACACATTAGTACAAATGTGGGGGAACTCACTGAAAGGGCATGTCCCGTGTACTGGTGTGCCGGAAAGTGGGGGTCGCTTTCTGGAGAACTTAGTAGTTCTTGTTATTGGGTGATAGCCTTGCGGCGGATCAACTCACAGTTTTAATCCGTTGTTTTGCAT | 4.53E+06
4 | Botrytis cinerea mitovirus 4 RdRp (nucleic acid, listed as Mitovirus sp.) DNA: GCCCCGCCGACCTTCCTATTTATTTCTAAATAGGAAGGTCCCGACTAGTCGGATAATTCGGTTTAACGAATTATGGTTAGATCTATTAAAGTTAAAATAGATTGAATTTCTTTCTCATCCTCCTTATTCCTATACTTTGGGAGTAAATGACAAATGTCTATCCTCAAACCGAAATGGCTTAAGTGATGAATTTGAAAGAAAGGTAGGTTTTAAGAATATAAGGCATCAATATATTATACCCTTGAATGTTAAGTGACCACGGCGTGACGATTAGGGCTATCTTAGGATAGACAGCCATCTAACGCGACAGCAGTGGAAATCAGCTTAGCATCTCAAGATCATGTATAATATATACATAACCTTACAATTATAAAACCAAACCAAAACACACTATAATTTTATATAAATTATAGAAGTATCGGACCTGGACGGTACCTACTATTAACTGATAGTAGCCAAATGCAGGAAGCTC | 9.68E+04
5 | Botrytis cinerea mitovirus 2 RdRp (nucleic acid, listed as Mitovirus sp.) DNA: GGAACTTTTCAGTTCCAGAAGTGGCTTTATTAAGCCTTCAAAGTTTACACTTTGAACCTGCGATTAATTCCCCATAGTGACTCTTGTTACTGTGAATTAGGAATAGTTGTAGTTCAACTTCTAATGAGGTGAACAATATAATAACTCATCTTATTAACCCTATACGTAGACAATTGTCCAAAGAGACAGTTGGAATTCTGCCAATCTGGAATGTTTGGTACGCGTAGAAGATAATAAGAGACCCTCTATTCCCCTGCCTCATGACTAAGTCATGGCCCGGGGTGTAATAGAGATACTTTTATATATTATACAATC | 8.73E+04
6 | Canine picodicistrovirus strain 209 (nucleic acid) DNA: CGCTCTTTATACAAATCTGTCAACCCTTTGTATAACTCTAAGCCGAACAATTATAGCTAGGCTTTTTATTATATAACATTAATTAGGCATTAGCGTTGTCGCCAATCTCTTGGTAATCCTAAGGATACCTTTCCTGTTGACTAAGATGAAGCGCCTTCGGTTACCGATGCCCGGTGTCCACGAAGCCATCGTGGTCGGCCGCGTCCCCCACCTCTCCCAACTTGGACTCCATGTTTTCAGTAGGTGTAATGATTAGTATTATTGATTCTGCTCGTTCAATGTGTTTATCTTCACGATCTGGGACCCAACACATGCTTCACTCATGTTTAAATGTTGGTTCCCTCATTTTGAAGACACCCAAACCATAGAGTGCGAGAATGAGGATTTCTACTTCCATTCTGGTAACAGAAATGAATTCCTGCGTGTGTCTCGTAAATGGAATCTTTAAGAACTTCAGATAAATCGAACAATACACTAATACAAGTTGTTTTCTACCAACATGTTCAATGCGGCTAATCTGACCGTGGAGCTGTGAAGCGCTCAAACCCGAGTGTTGTATACAGTCGTAATGCGTAAGTCCATGAGGAACCGACTACTGTTACCTCTGTTGGTGTGTTTCTCCTTTCCTCTCTTTTATTATTATTTGTTATTGCAAATACTACAACTTTGATCAAC | 2.79E+06
7 | Canine kobuvirus (nucleic acid, listed as Kobuvirus sp.) DNA: TTTAAGTGTTGTGCCCAATCTCTTGACTCCTGCTGGAACCACCGACCAGTAGTGTCCAAAATGCCAGGTGGAAAATCCTCCCTTCCCCTCTGGGCTTCATGCCCGGCATCCTCCCCCCAGCCTGACGTGCCACAGGCTGTGCAAAGACCCCGCGAAAGCTGCCAAAAGTGGCAATTGTGGGTCCCCCCTTTGTCAAGGCGTCGAGTCTTTCTCCCTTAAGGCTAGTCCTGTCAGTGAACTCTGTCGGGCAACTAGTGACGCCACTGCATGCCTCCGACCTCGGCCGCGGAGTGCTGCCCCCCAAGTCATGCCCCTGACCACAAGTTGTGCTGTCTGGCAAACATTGTCTGTGAGAATGTTCCGCTGTGGCTGCCAAGCCTGGTAACAGGCTGCCCCAGTGTGCGTAATTCTCATCCAGACTTCGGTCTGGCAACTTGCTGTTAAGACATGGCGTAAGGGGCGTGTGCCAACGCCCTGGAACGAGTGTCCACTCTAATACCCCGAGGAATGCTACGCAGGTACCCCTGGCTCGCCAGGGATCTGAGCGTAGGCTAATTGTCTAAGGGTATTTTCATTTCCCACCCTCTTCTTCTTGTTCATA | 1.48E+08
8 | Bovine nidovirus TCH5 (nucleic acid, listed as Bovine nidovirus) DNA: CACCAATAGATTAGTCAAGCTGTCTATAGGCATAAACTAACCCCCAACCCCATTACCCCGGGGCCAGGTGGGCCGCCGCCTTCGGGCAAACCCGTGCGCTGGTATAATCAAGGTTCACAGCCAGATTCACTGCCGGTTAGCTAGTGGGGCGGTAGCCTGGCAAAACCCGAAGAGGTTGGAAAGGGAACTTCAGGGTAGTTTATCCTAGGCTAGCGTAGCTACAGTTCGGTCAAGATAACCGTCCTGGTGCTAGGGCTAGTAGAGACAGTGGTAACTTGGACAAGGGTCCAGGGCCACTTTAGGGAATACCCTACGGAAGGCTAGGTCCGTAAGGAAGACCCCCGCAGTTGTCCGCGGTTGAGCAGAGCTCCTGCGTAGACAAAAGGCAAAAAGTGGATTACATTCGCCTGCAGGAAAAGGCAAACGTCGTTGGAGTCGGAGCTAAAGTACTGGACGATTGATACCACGCCTGCTGCGGTAGATAAA | 1.17E+05
9 | Bovine viral diarrhea virus 3 (nucleic acid) DNA: GTATACGCCCAGTTAGTTCAGGTGGACGTGTACGATTGGGTATCCCAAATTAATAATTTGGTTTAGGGACTAAATCCCCTGGCGAAGGCCGAAACAGGTTAACCATACCTTTAGTAGGACGAGCATAATGGGGGACTAGTGGTGGCAGTGAGCTCCCTGGATCACCGAAGCCCCGAGTACGGGGTAGTCGTCAATGGTTCGACGCATCAAGGAATGCCTCGAGATGCCATGTGGACGAGGGCGTGCCCACGGTGTATCTTAACCCAGGCGGGGGCCGCTTGGGTGAAATAGGGTTGTTATACAAGCCTTTGGGAGTACAGCCTGATAGGGTGTTGCAGAGACCTGCTACACCACTAGTATAAAAACTCTGCTGTACATGGCAC | 2.70E+06
10 | Bovine rhinitis A virus (nucleic acid, Bovine rhinitis A virus) DNA: TTTTGCGGCTCTGCCGCCGTTCGGGTTTTACCTGTTTTCACAGAGCAAAACAGGACCTCTAGTTTCGTGCTTAAACGAGATCATGCTCGAACTAGAACTATAACGCTGGTCACTGGACCCGTGCCGCGCCTTGCGGATCTTTGCGGGAATGGTGGCTAGTGGGCTGTGGAAGTGACTCTAACCACACGCCCCTCAAGTGTGGGAAAACACGAACTGGTGTAGCGACGACGATAGGCCTTGGGACACCCTCTCCAGTGATGGAGACCCAAGGGGCCAAAAGCCACGCCTTGTGCCCTGTCGTTCACAACCCCAGTGCAGTTCGTGCCAGTACCTGCTTTTGGGAAGTGTGCTTTGGACAGCTGAAAACAGTCCTAGTGGGAGACTAAGGATGCCCAGGAGGTACCCGGAGGTAACAAGTGACACTCTGGATCTGACTTGGGGAGAGCGGGTCTGCTTTACAGACGCCACTCTTTAAAAAACTTCTATGTCTCGTCAGGCACCGGAGGCCGGGCCTTTTCCTTTAAAACAATACACTTT | 3.62E+06
11 | Bovine picornavirus isolate TCH6 (nucleic acid) DNA: TTGGATCTGAGCAGGGGCCCCCTTTGGGTTGCTTTACAACTCAACTGGGGGTTAAAAAACGTCTAACCCGACACGCCAGAGGGATCTGGTTTCCTTTTATTTCTTTTACTCACCACTGGATGCAGATTGACGATAAACGTTGTTGTTTGTGACTATTGACTTGATCTGCTTCTACGGGTTTACTTTCACTGTTATACTTCTTGCTTTGTTTGGTGTTCACTGTACTTTGTCTCCTTCTACATTTCACA | 1.21E+05
12 | Canine distemper virus (nucleic acid, listed as Canine morbillivirus, chemistry not fully specified) DNA: ACCAGACAAAGTTGGCTAAGGATAGTTAAATTATTGAATATTTTATTAAAAACTTAGGGTCAATGATCCTACCTTAAAGAACAAGGCTAGGGTTCAGACCTACCAAT | 3.02E+05
